*1 amine or outer side, *2 acyl side, *3 side chain or, on linkers, in order; H or OH if unused. Bridges are numbered along the chain shown (N, C = ends). Primed or numbered codes have the meaning given here. Where no end group is shown, it is not given here. [ ]: non-standard residue; d: D form. 4‑Aminomethyl‑phenylacetyl = 4-aminomethyl-phenylacetyl unit, its amine closes the lactam, O=C(Cc1ccc(CN[*:1])cc1)[*:2]; Q(pyrrolidin)″ = (2S)-2-amino-5-oxo-5-pyrrolidin-1-yl-pentanoic acid, O=C(CC[C@H](N[*:1])C(=O)[*:2])N1CCCC1; 1,3‑dibromopropan‑2‑one(3) = linker giving 1,3-dithio-propan-2-one bridge -SCH2C(=O)CH2S- between Cys; 4‑Aminomethyl‑phenylacetyl″ = N-terminal cap residue, O=C(Cc1ccc(CN[*:1])cc1)[*:2]; Ala(quinolin-3-yl) = N[C@@H](Cc1cnc2ccccc2c1)C(=O)O; Trp(4-F) = N[C@@H](Cc1c[nH]c2cccc(F)c12)C(=O)O; Trp(7-F) = N[C@@H](Cc1c[nH]c2c(F)cccc12)C(=O)O; Phe(3,4-Me2) = Cc1ccc(C[C@H](N)C(=O)O)cc1C; 2Nal = N[C@@H](Cc1ccc2ccccc2c1)C(=O)O; AEF = NCCOc1ccc(C[C@H](N)C(=O)O)cc1; 3Pal = N[C@@H](Cc1cccnc1)C(=O)O; d3Pal = N[C@H](Cc1cccnc1)C(=O)O; αMeL = CC(C)C[C@](C)(N)C(=O)O; αMeV = CC(C)[C@](C)(N)C(=O)O; 3Amb = NCc1cccc(C(=O)O)c1; Dab = NCC[C@H](N)C(=O)O
T1: human IL-23R endogenously expressed on DB cells (CRL-2289) (human, UniProt Q5VWK5 24-629)
T1 sequence (looked up): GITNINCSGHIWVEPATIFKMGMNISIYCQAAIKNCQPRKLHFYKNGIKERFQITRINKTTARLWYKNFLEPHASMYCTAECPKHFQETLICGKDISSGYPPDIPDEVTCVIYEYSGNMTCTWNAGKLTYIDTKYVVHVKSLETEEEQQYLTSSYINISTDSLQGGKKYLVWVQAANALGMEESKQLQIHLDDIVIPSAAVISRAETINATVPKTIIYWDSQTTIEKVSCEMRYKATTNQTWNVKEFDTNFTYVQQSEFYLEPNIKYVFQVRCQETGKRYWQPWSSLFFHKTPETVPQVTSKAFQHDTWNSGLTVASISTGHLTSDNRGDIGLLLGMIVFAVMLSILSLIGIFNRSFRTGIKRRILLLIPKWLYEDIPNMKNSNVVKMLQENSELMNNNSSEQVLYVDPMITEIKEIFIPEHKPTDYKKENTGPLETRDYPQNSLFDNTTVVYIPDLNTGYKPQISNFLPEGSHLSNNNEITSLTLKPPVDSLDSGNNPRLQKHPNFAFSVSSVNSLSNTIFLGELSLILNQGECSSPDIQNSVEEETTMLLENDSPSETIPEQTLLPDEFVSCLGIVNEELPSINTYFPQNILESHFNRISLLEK


These binders were tested against T1, human IL-23R endogenously expressed on … (assay: cell-based or functional assay).

Binder	IC50 (pSTAT3)
[3Amb]SCWQC[AEF][2Nal][αMeL]E[Dab][3Pal]-NH2 (lactam (positions not given here); linker 3-6 via 1,3‑dibromopropan‑2‑one(3); not fully specified (bridges); printed as [(3-Aminomethyl)benzoyl](1c)*SC(2a)WQC(2a)[Y(2-aminoethoxy)][2-Nal][2-Me-Leu]E(1c)[Dab][3-(3-Pyridyl)-Ala]-[NH2]) [Compound 148]	0.0868 nM
[3Amb]SCWQC[AEF][2Nal][αMeL]ER[d3Pal]-NH2 (lactam (positions not given here); linker 3-6 via 1,3‑dibromopropan‑2‑one(3); not fully specified (bridges); printed as [(3-Aminomethyl)benzoyl](1c)*SC(2a)WQC(2a)][Y(2-aminoethoxy)][2-Nal][2-Me-Leu]E(1c)R[{d}[3-(3-Pyridyl)-Ala]]-[NH2]) [Compound 150]	14.3 nM
[4‑Aminomethyl‑phenylacetyl]IEWQ[Dab][AEF][Phe(3,4-Me2)][αMeV]EG[3Pal]-NH2 (lactam (positions not given here); lactam 3-6; not fully specified (bridges); printed as [4-Aminomethyl-phenylacetyl](1c)*IE(2c)WQ[Dab](2c)[Y(2-aminoethoxy)][F(3,4-Me)][2-Me-Val]E(1c)G[3-(3-Pyridyl)-Ala]-[NH2]) [Compound 158]	0.635 nM
DESSWQSWWLKR (HELM PEPTIDE1{D.E.S.S.W.Q.S.W.W.L.K.R.[am]}$PEPTIDE1,PEPTIDE1,2:R3-11:R3$$$V2.0; SMILES CC(C)C[C@@H]1NC(=O)[C@H](Cc2c[nH]c3ccccc23)NC(=O)[C@H](Cc2c[nH]c3ccccc23)NC(=O)[C@H](CO)NC(=O)[C@H](CCC(N)=O)NC(=O)[C@H](Cc2c[nH]c3ccccc23)NC(=O)[C@H](CO)NC(=O)[C@H](CO)NC(=O)[C@@H](NC(=O)[C@@H](N)CC(=O)O)CCC(=O)NCCCC[C@@H](C(=O)N[C@@H](CCCNC(=N)N)C(N)=O)NC1=O) [Ref 2]	> 1 µM
[4‑Aminomethyl‑phenylacetyl]SE[Trp(4-F)]Q[Dab][AEF][2Nal][αMeL]E[Dab]-NH2 (lactam N-10, 3-6; SMILES CC(C)C[C@]1(C)NC(=O)[C@H](Cc2ccc3ccccc3c2)NC(=O)[C@H](Cc2ccc(OCCN)cc2)NC(=O)[C@@H]2CCNC(=O)CC[C@H](NC(=O)[C@H](CO)NC(=O)Cc3ccc(cc3)CNC(=O)CC[C@@H](C(=O)N[C@@H](CCN)C(N)=O)NC1=O)C(=O)N[C@@H](Cc1c[nH]c3cccc(F)c13)C(=O)N[C@@H](CCC(N)=O)C(=O)N2) [Compound 138]	39.4 nM
[4‑Aminomethyl‑phenylacetyl]SEW[Q(pyrrolidin)″][Dab][AEF][2Nal][αMeL]E[Dab]-NH2 (lactam N-10, 3-6; SMILES CC(C)C[C@]1(C)NC(=O)[C@H](Cc2ccc3ccccc3c2)NC(=O)[C@H](Cc2ccc(OCCN)cc2)NC(=O)[C@@H]2CCNC(=O)CC[C@H](NC(=O)[C@H](CO)NC(=O)Cc3ccc(cc3)CNC(=O)CC[C@@H](C(=O)N[C@@H](CCN)C(N)=O)NC1=O)C(=O)N[C@@H](Cc1c[nH]c3ccccc13)C(=O)N[C@@H](CCC(=O)N1CCCC1)C(=O)N2) [Compound 146]	41.5 nM
[4‑Aminomethyl‑phenylacetyl″]SCWQC[AEF][2Nal][αMeL]ER[3Pal]-NH2 (lactam N-10; linker 3-6 via 1,3‑dibromopropan‑2‑one(3)) [Compound 147]	0.0858 nM
[4‑Aminomethyl‑phenylacetyl]SE[Trp(7-F)]Q[Dab][AEF][2Nal][αMeL]E[Dab]-NH2 (lactam N-10, 3-6; SMILES CC(C)C[C@]1(C)NC(=O)[C@H](Cc2ccc3ccccc3c2)NC(=O)[C@H](Cc2ccc(OCCN)cc2)NC(=O)[C@@H]2CCNC(=O)CC[C@H](NC(=O)[C@H](CO)NC(=O)Cc3ccc(cc3)CNC(=O)CC[C@@H](C(=O)N[C@@H](CCN)C(N)=O)NC1=O)C(=O)N[C@@H](Cc1c[nH]c3c(F)cccc13)C(=O)N[C@@H](CCC(N)=O)C(=O)N2) [Compound 139]	30.2 nM
[3Amb]SCWQC[AEF][2Nal][αMeL]ER[Ala(quinolin-3-yl)]-NH2 (lactam (positions not given here); linker 3-6 via 1,3‑dibromopropan‑2‑one(3); not fully specified (bridges); printed as [(3-Aminomethyl)benzoyl](1c)*SC(2a)WQC(2a)][Y(2-aminoethoxy)][2-Nal][2-Me-Leu]E(1c)R[3-(3-Quinolinyl)-Ala]-[NH2]) [Compound 149]	4.82 nM
[3Amb]IEWQ[Dab][AEF][2Nal][αMeV]E[Dab][3Pal]-NH2 (lactam (positions not given here); lactam 3-6; not fully specified (bridges)) [Compound 156]	0.0857 nM
DESCWQCWWLXR (HELM PEPTIDE1{D.E.S.C.W.Q.C.W.W.L.[Dab].R.[am]}|CHEM1{[O=C(C[*:1])C[*:2]]}$PEPTIDE1,PEPTIDE1,2:R3-11:R3|PEPTIDE1,CHEM1,4:R3-1:R1|PEPTIDE1,CHEM1,7:R3-1:R2$$$V2.0; SMILES CC(C)C[C@@H]1NC(=O)[C@H](Cc2c[nH]c3ccccc23)NC(=O)[C@H](Cc2c[nH]c3ccccc23)NC(=O)[C@@H]2CSCC(=O)CSC[C@H](NC(=O)[C@H](CO)NC(=O)[C@@H](NC(=O)[C@@H](N)CC(=O)O)CCC(=O)NCC[C@@H](C(=O)N[C@@H](CCCNC(=N)N)C(N)=O)NC1=O)C(=O)N[C@@H](Cc1c[nH]c3ccccc13)C(=O)N[C@@H](CCC(N)=O)C(=O)N2) [Compound 9]	> 1 µM
[4‑Aminomethyl‑phenylacetyl][Q(pyrrolidin)″]EWQ[Dab][AEF][2Nal][αMeL]E[Dab]-NH2 (lactam N-10, 3-6; SMILES CC(C)C[C@]1(C)NC(=O)[C@H](Cc2ccc3ccccc3c2)NC(=O)[C@H](Cc2ccc(OCCN)cc2)NC(=O)[C@@H]2CCNC(=O)CC[C@H](NC(=O)[C@H](CCC(=O)N3CCCC3)NC(=O)Cc3ccc(cc3)CNC(=O)CC[C@@H](C(=O)N[C@@H](CCN)C(N)=O)NC1=O)C(=O)N[C@@H](Cc1c[nH]c3ccccc13)C(=O)N[C@@H](CCC(N)=O)C(=O)N2) [Compound 145]	22.7 nM
[4‑Aminomethyl‑phenylacetyl]IEWQ[Dab][AEF][2Nal][αMeV]E[Dab][3Pal]-NH2 (lactam (positions not given here); lactam 3-6; not fully specified (bridges); printed as [4-Aminomethyl-phenylacetyl](1c)*IE(2c)WQ[Dab](2c)[Y(2-aminoethoxy)][2-Nal][2-Me-Val]E(1c)[Dab][3-(3-Pyridyl)-Ala]-[NH2]) [Compound 157]	0.0318 nM
DESTWQYWWLKR (HELM PEPTIDE1{D.E.S.T.W.Q.Y.W.W.L.K.R.[am]}$PEPTIDE1,PEPTIDE1,2:R3-11:R3$$$V2.0; SMILES CC(C)C[C@@H]1NC(=O)[C@H](Cc2c[nH]c3ccccc23)NC(=O)[C@H](Cc2c[nH]c3ccccc23)NC(=O)[C@H](Cc2ccc(O)cc2)NC(=O)[C@H](CCC(N)=O)NC(=O)[C@H](Cc2c[nH]c3ccccc23)NC(=O)[C@H]([C@@H](C)O)NC(=O)[C@H](CO)NC(=O)[C@@H](NC(=O)[C@@H](N)CC(=O)O)CCC(=O)NCCCC[C@@H](C(=O)N[C@@H](CCCNC(=N)N)C(N)=O)NC1=O) [Ref 3]	> 1 µM
[3Amb]SCWQC[AEF][2Nal][αMeL]ER[3‑Amino‑3‑(3'-pyridyl)propionyl]-NH2 (lactam (positions not given here); linker 3-6 via 1,3‑dibromopropan‑2‑one(3); not fully specified (bridges); printed as [(3-Aminomethyl)benzoyl](1c)*SC(2a)WQC(2a)][Y(2-aminoethoxy)][2-Nal][2-Me-Leu]E(1c)R[3-Amino-3-(3′-pyridyl)propionyl]-[NH2]) [Compound 151]	10.7 nM

— patent US20250154198A1, “PEPTIDE INHIBITORS OF INTERLEUKIN-23 RECEPTOR” (Zealand Pharma A/S, priority 2021, published 2025)
